# Measurements: the Immune Epitope Database (IEDB)
# Experiments:
# Assay in all cases: IEDB peptide-MHC binding, purified MHC/competitive/radioactivity; ≥ and ≤ were set here for values at or beyond the usual limits of such assays
# Conditions in all cases: source organism: Bordetella pertussis
# HLA-A*02:01 = target: HLA-A*02:01
# HLA-B*07:02 = target: HLA-B*07:02
# HLA-B*35:01 = target: HLA-B*35:01
# HLA-B*53:01 = target: HLA-B*53:01
# HLA-B*57:01 = target: HLA-B*57:01
# HLA-B*44:03 = target: HLA-B*44:03
sequence,measurement,setting,value
AALGRGHSL,IC50,HLA-A*02:01,32.1 µM
same,IC50,HLA-B*07:02,19.6 µM
EATQQAAGF,IC50,HLA-B*35:01,41.1 µM
GYEAGFSLG,IC50,HLA-B*53:01,26 µM
HADDGTIVI,IC50,HLA-B*53:01,69.9 µM
HAQGKALLY,IC50,HLA-B*35:01,0.385 µM
ITNETGKTY,IC50,HLA-B*57:01,≥ 70.4 µM
LASDGSVDF,IC50,HLA-B*53:01,23.1 µM
LVFSHVRGM,IC50,HLA-B*35:01,19.8 µM
MIYMSGLAV,IC50,HLA-A*02:01,2.86 µM
PGPTTDYST,IC50,HLA-B*44:03,≥ 78.2 µM
QITQHGGPY,IC50,HLA-B*35:01,44 µM
QITQHGSPY,IC50,HLA-B*35:01,34.5 µM
TSRTVTMRY,IC50,HLA-B*57:01,0.182 µM
TVQELALKL,IC50,HLA-B*44:03,12.5 µM
VAMKPYEVT,IC50,HLA-B*35:01,69.9 µM
VAVAGGRWH,IC50,HLA-B*44:03,≥ 78.2 µM
